Assay results published in the RNAGym collection of RNA variant scans (doi:10.7554/elife.80360).

B1: HDV Ribozyme (parent)
chain: GGCCGGCAUGGUCCCAGCCUCCUCGCUGGCGCCGGCUGGGCAACAUUCCGAGGGGACCGUCCCCUCGGUAAUGGCGAAUGGGACCCA

Variants of: B1
Experiment: self-cleavage, relative activity (ratio to wild type); higher = more cleavage; co-transcriptional

In order of rising self-cleavage:
1. G10A U12G  0
2. G5U C30G  0
3. C3G C24A  0
4. C4A G29A  0.0244
5. C24U C32A  0.0287
6. C19U U72C  0.0354
7. G2U G25A  0.0391
8. U20C C24U  0.0475
9. G1C G80U  0.0484
10. G5A A70G  0.0504
11. C3A G81A  0.054
12. C19G A43U  0.0594
13. C18U A42U  0.0627
14. G28A C58A  0.0639
15. G1C G74A  0.0678
16. C4A G35A  0.0733
17. G11A G74A  0.0769
18. C18G U60G  0.0791
19. C14A U37G  0.104
20. G5U C32U  0.104
21. G40C G81C  0.115
22. U23G G81U  0.117
23. G25A C30A  0.126
24. C22A U79A  0.131
25. G1C A51C  0.133
26. U27C U46C  0.138
27. C14U U20G  0.145
28. G11U G31C  0.146
29. G10U G31C  0.158
30. G29A U46G  0.166
31. A8U U20A  0.166
32. G34U C44G  0.173
33. A42U A83G  0.177
34. C3G C22U  0.179
35. G35U A43G  0.185
36. U37A U47A  0.201
37. C21U C62A  0.214
38. A77U G81U  0.237
39. C3G U79G  0.262
40. G73C A83C  0.264
41. G6A U27C  0.268
42. U60G G80A  0.286
43. C4G C58G  0.289
44. G40U G81A  0.328
45. C22A G59A  0.359
46. U27A G35A  0.369
47. C32U C84G  0.399
48. C15G G67C  0.415
49. G10U C24U  0.427
50. C24U U65G  0.435
51. C44G C61G  0.441
52. G31A G50U  0.442
53. G6U U65G  0.453
54. G6U U47C  0.467
55. C26A U79C  0.469
56. C30U C62G  0.475
57. A43C A51G  0.499
58. C14A U60A  0.499
59. A43C G76C  0.604
60. C48G G52U  0.612
61. C48U A51G  0.618
62. C41G C84G  0.665
63. G10C C61A  0.734
64. G35A C86G  0.739
65. U23C U46C  0.745
66. G50C C86U  0.748
67. A56U U79G  0.787
68. C44A G54U  0.794
69. C66A U79G  0.804
70. G39U G53C  0.831
71. A51G U69C  0.9
72. C26U G52C  0.9
73. G53A A71U  0.904
74. A8G C66G  0.969
75. G59A G68C  0.969
76. G55C C86A  1.03
77. C57G G76A  1.04
78. U37C U65C  1.05
79. G54A G59U  1.06
80. G40A A56G  1.11
81. U27G C86U  1.15
82. C14U G54C  1.2
83. U9A G53A  1.2
